For the data set the following is noted: Rhodococcus erythropolis; pH 7.1; Thermal; Fluorescence; Potassium phosphate 50mM; transition: 2; reversible: no; whole UniProt chain shown.

B1: Limonene-1,2-epoxide hydrolase wild type, Q9ZAG3 (protein)
chain: MTSKIEQPRWASKDSAAGAASTPDEKIVLEFMDALTSNDAAKLIEYFAEDTMYQNMPLPPAYGRDAVEQTLAGLFTVMSIDAVETFHIGSSNGLVYTERVDVLRALPTGKSYNLSILGVFQLTEGKITGWRDYFDLREFEEAVDLPLRG
Regarding B1, the Tm was 48.8 °C.

For the origin of these results see FireProtDB (doi:10.1093/protein/gzt061).
